Reference: US20210230266A1 (SINGAPORE HEALTH SERVICES PTE, published 2021)

T1: Human IL-11 (human, UniProt P20809 22-199)
T1 construct: Recombinant human IL-11 (GenScript Cat. No. Z03108-1) or IL-11 secreted by human cells; the mature form is said to have 178 residues; also called recombinant human IL-11; endogenously produced IL-11
T1 sequence: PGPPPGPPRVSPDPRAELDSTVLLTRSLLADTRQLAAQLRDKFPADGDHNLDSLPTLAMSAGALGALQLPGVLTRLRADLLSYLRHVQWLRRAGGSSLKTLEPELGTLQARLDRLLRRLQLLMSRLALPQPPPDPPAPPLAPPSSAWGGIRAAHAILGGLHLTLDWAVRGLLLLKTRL

T2: Mouse IL-11 (mouse, UniProt P47873 22-199, limits assumed)
T2 construct: also called murine IL-11; recombinant murine IL-11
T2 sequence (looked up): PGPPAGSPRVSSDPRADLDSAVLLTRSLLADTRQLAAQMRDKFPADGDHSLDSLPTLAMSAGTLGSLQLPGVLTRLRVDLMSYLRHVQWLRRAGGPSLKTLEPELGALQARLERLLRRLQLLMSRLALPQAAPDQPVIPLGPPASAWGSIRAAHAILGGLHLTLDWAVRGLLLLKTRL

B1: YU100-F02 (antibody)
chain: EVQLVESGGGVVQPGRSLRLSCAASGFTFSSYGMHWVRQAPGKGLEWVAVISYDGSNKYYADSVKGRFTISRDNSKNTLYLQMNSLRAEDTAVYYCAKIGATDPLDYWGQGTLVTVSSGSASAPKLEEGEFSEARVQSALTQPRSVSGSPGQSVTISCTGTSSDVGGYNYVSWYQQHPGKAPKLMIYDVTKRPSGVPDRFSGSKSGNTASLTISGLQADDEADYYCCSYAGSYTWIFGGGTKLTVL
B2: YU100-G09 (antibody)
chain: EVQLVESGGGVVQPGRSLRLSCAASGFTFSSYGMHWVRQAPGKGLEWVAVISYDGSNKYYADSVKGRFTISRDNSKNTLYLQMNSLRAEDTAVYYCAKIGATDPLDYWGQGTLVTVSSGSASAPKLEEGEFSEARVQSALTQPRSVSGSPGQSVTISCTGTISDVGGYNYVSWYQQHPGKAPKLMIYDVTKRPSGVPDRFSGSKSGNTASLTISGLQAEDEAGYYCSSYAGSYTWVFGGGTKLTVL
B3: YU100-H06 (antibody)
chain: QVQLVESGGGVVQPGRSLRLSCAASGFTFSSYGMHWVRQAPGKGLEWVAVISYDGSNKYYADSVKGRFTISRDNSKNTLYLQMNSLRAEDTAVYYCAKIGATDPLDYWGQGTLVTVSSGSASAPKLEEGEFSEARIQSALTQPRSVSGSPGQSVTISCTGTSSDVGGYNYVSWYQQHPGKAPKLMIYDVTKRPSGVPDRFSGSKSGNTASLTISGLQAEDEADYYCSSYAGSYTWVFGGGTKLTVL
B4: YU100-G01 (antibody)
chain: QVQLVQSGGGVVQPGRSLRLSCAASGFTFSSYGMHWVRQAPGKGLEWVAVISYDGSNKYYADSVKGRFTISRDNSKNTLYLQMNSLRAEDTAVYYCAKIGATDPLDYWGQGTLVTVSSGSASAPKLEEGEFSEARVQSALTQPRSVSASPGQSVTISCTGTSSDVGAYNYVSWYQQHPGKAPKLMLYDVNKRPSGVPDRFSGSKSGNTASLTISRLQAEDEADYYCCSYAGSYTWVFGGGTKLTVL
B5: YU100-H05 (antibody)
chain: QVQLVESGGGVVQPGRSLRLSCAASGFTFSSYGMHWVRQAPGKGLEWVAVISYDGSNKYYADSVKGRFTISRDNSKNTLYLQMNSLRAEDTAVYYCAKIGATDPLDYWGQGTLVTVSSGSASAPKLEEGEFSEARVQAVLTQPRSVSGSPGQSITISCTGTGSNVGGYNYVSWYQQHPGQAPKLMIYDVSKRPSGVPDRFSGSKSGNTASLTISGLQAEDEADYYCCSYAGTYTWVFGGGTKLTVL
B6: YU100-E11 (antibody)
chain: QVQLVESGGGVVQPGRSLRLSCAASGFTFSSYGMHWVRQAPGKGLEWVAVISYDGSNKYYADSVKGRFTISRDNSKNTLYLQMNSLRAEDTAVYYCARIMGYDYGDYDVVDYWGQGTLVTVSSGSASAPKLEEGEFSEARVQSALTQPRSVSGSPGQSVTISCTGTSSDVGGYNYVSWYQQHPGKAPKLMIYDVSKRPSGVPDRFSGSKSGNTASLTISGLQAEDEADYYCCSYAGSYTWVFGGGTKLTVL
B7: YU100-H04 (antibody)
chain: QVQLVESGGGVVQPGRSLRLSCAASGFTFSSYAMHWVRQAPGKGLEWVAVISYDGSNKYYADSVKGRFTISRDNSKNTLYLQMNSLRAEDTAVYYCARIMGYDYGDYDVVDYWGQGTLVTVSSGSASAPKLEEGEFSEARVQSALTQPASVSGSPGQSITISCTGTSSDIGVYNYVSWYQQHPGKAPKLMIYDVSKRPSGVPDRFSGSKSGNTASLTISGLQAEDEADYYCCSYAGSYTWVFGGGTKLTVL
B8: YU100-H02 (antibody)
chain: QVQLQQSGGGVVQPGRSLRLSCAASGFTFSSYGMHWVRQAPGKGLEWVAVISYDGSNKYYADSVKGRFTISRDNSKNTLYLQMNSLRAEDTAVYYCARIMGYDYGDYDVVDYWGQGTLVTVSSGSASAPKLEEGEFSEARVQSALTQPRSVSRSPGQSVTISCTGTSSDVGTYNYVSWYQQHPGKAPKLMIYDVSKRPSGVPDRFSGSKSGNTASLTISGLQAEDEADYYCCSYAGFYTWVFGGGTKLTVL
B9: YU100-H09 (antibody)
chain: QVQLVQSGGGVVQPGRSLRLSCAASGFTFSSYAMHWVRQAPGKGLEWVAVISYDGSNKYYADSVKGRFTISRDNSKNTLYLQMNSLRAEDTAVYYCARIMGYDYGDYDVVDYWGQGTLVTVSSGSASAPKLEEGEFSEARVQSALTQPASVSGSPGQSITISCTGTSSDVGGYNYVSWYQQHPGKAPKLMIYDVSNRPSGVSNRFSGSKSGNTASLTISGLQAEDEADYYCCSYAGSYTWVFGGGTKLTVL
B10: YU100-F01 (antibody)
chain: QVQLVQSGGGVVQPGRSLRLSCAASGFTFSSYGMHWVRQAPGKGLEWVAVISYDGSNKYYADSVKGRFTISRDNSKNTLYLQMNSLRAEDTAVYYCAKIGATDPLDYWGQGTLVTVSSGSASAPKLEEGEFSEARVQSALTQPASVSGSPGQSITISCTGTGSDVGAYDYVSWYQQHPGKAPKLMIYDVNNRPSGVSNRFSGSKSGNTASLTISGLQAEDEAEYYCSSFATSISWVFGGGTRLTVL
B11: YU100-E12 (antibody)
chain: QVQLVESGGGVVQPGRSLRLSCAASGFTFSSYGMHWVRQAPGKGLEWVAVISYDGSNKYYADSVKGRFTISRDNSKNTLYLQMNSLRAEDTAVYYCAKIGATDPLDYWGQGTLVTVSSGSASAPKLEEGEFSEARVQSALTQPASVSGSPGQSITISCTGTSSDVGGYNYVSWYQQHPGTAPKLMIYDVSNRPSGVSNRFSGSKSGNTASLTISGLQAEDEADYYCSSYTSSTTWVFGGGTKLTVL
B12: YU100-G07 (antibody)
chain: QVQLVESGGGVVQPGRSLRLSCAASGFTFSSYGMHWVRQAPGKGLEWVAVISYDGSNKYYADSVKGRFTISRDNSKNTLYLQMNSLRAEDTAVYYCAKIGATDPLDYWGQGTLVTVSSGSASAPKLEEGEFSEARVQSALTQPASVSGSPGQSITISCTGTSSDVGAYDYVSWYQQHPGKAPKLMIYDVTNRPSGVSNRFSGSKSGNTASLTISGLQAEDEADYYCASYTRSSVWVFGGGTKLTVL
B13: YU100-H11 (antibody)
chain: QVQLVQSGGGVVQPGRSLRLSCAASGFTFSSYGMHWVRQAPGKGLEWVAVISYDGSNKYYADSVKGRFTISRDNSKNTLYLQMNSLRAEDTAVYYCAKIGATDPLDYWGQGTLVTVSSGSASAPKLEEGEFSEARVQSALTQPASVSGSPGQSITISCTGTSSDVGGYNYVSWYQQHPGKAPKLMIYDVSNRPSGVSNRFSGSKSGNTASLTISGLQAEDEADYYCCSYAGSYTWVFGGGTKLTVL

Legend:
Human IL-11 [1] = biological target: T1, Human IL-11; assay: ELISA
Method: (§1) The soluble scFv were produced by recombinant expression in E. coli, and analysed for their ability to bind to human IL-11 and murine IL-11 by ELISA. Briefly, the respective antigen was coated to wells of an ELISA plate, the cell culture supernatant containing the respective scFv was added at a 1:2 dilution, and binding was detected.

Mouse IL-11 = biological target: T2, Mouse IL-11; assay: ELISA
Method: as §1

Human IL-11 [2] = biological target: T1, Human IL-11; assay: ELISA on coated recombinant human IL-11 (100 ng/well), scFv-Fc
Method: The light chain shuffled anti-IL-11 antibodies were analysed to determine the EC50 for binding to human IL-11 by ELISA according to standard methods. Briefly, wells of microtiter plates were coated with recombinant human IL-11 (100 ng/well), scFv-Fc comprising the VH and VL domains of the clones were added in a dilution series and antibody binding was detected using a polyclonal antibody detection system.

Human IL-11 [3] = biological target: T1, Human IL-11; assay: cell-based or functional assay

| Binder | hIL11 - average signal (Human IL-11 [1]) | mIL11 - average signal (Mouse IL-11) | EC50 (Human IL-11 [2]) [µg/mL] | MMP2 production, Experiment 1 (human atrial fibroblasts + TGFB1) (Human IL-11 [3]) [ng/mL] | MMP2 production, Experiment 2 (human atrial fibroblasts + TGFB1) (Human IL-11 [3]) [ng/mL] |
| --- | --- | --- | --- | --- | --- |
| B1 | 0.361 | 0.303 | 0.018 | 51.2 | 43.5 |
| B2 | 0.802 | 0.985 | 0.014 | 59.9 | 47.5 |
| B3 | 0.181 | 0.328 | 0.013 | 52.3 | 43.9 |
| B4 | 0.205 | 0.31 | 0.019 | 56.6 | 49.7 |
| B5 | 0.163 | 0.461 | 0.022 | 57.1 | 47.8 |
| B6 | 0.268 | 0.435 | 0.028 | 49.1 | 41.9 |
| B7 | 0.508 | 0.393 | 0.027 | 58.5 | 48.7 |
| B8 | 0.309 | 0.188 | 0.032 | 57.5 | 51.3 |
| B9 | 0.4 | 0.668 | 0.028 | 52.9 | 39.6 |
| B10 | 0.464 | 0.528 | 0.018 | 52.8 | 39.9 |
| B11 | 0.426 | 0.5 | 0.016 | 56 | 47.9 |
| B12 | 0.203 | 0.206 | 0.018 | 59 | 49.7 |
| B13 | 0.724 | 0.629 | 0.015 | 53.7 | 45.5 |
